# The DeepSol protein solubility set
# Assay: soluble on expression in E. coli; label from the status in PepcDB or PDB records
row,Sequence,soluble on expression in E. coli
1,MGSDKIHHHHHHMKEIPGLVKKAQIDKHDLTWLEESEVDDRVQQRRYGTTQAAELAGISVGLLYAAEQDGRLPEPEYRSDTARKVRAGYTINHINHMQRVFNTAPRKPEGSSAAIAGILNLKGGSQKTTTCHLFSQYLAIRGYRCLLLDTDPQGSLSFYFGKRPDDNVHYENTVAPFFLEDDEALVEAGHPEGASRSLHYAIQKTYWDNIDIIPACLQNLNIDLLMPSVMNEANVPMLDRIMKLRNGLLEVGENYDFIIIDGTPSLNLSTLNVVSACDVCFVPTPAAMLDFASTLQFAGLVAETAEMYKQEKMYPNIPDMRYFITKYSGSSYAHFMGQIIRRVFTVERGDVLSTEAHASDEIGKANTSTYSIYEKNPAESDNRKRLKKTIEMFDRLFEEMHDAVWETCFEDALRSSHLDKIDEIMSSADLARDDLKRANRLSDKEA,not soluble
2,MGSDKIHHHHHHMRLPDAGFRRYIVVAGRRNVGKSSFMNALVGQNVSIVSEYAGTTTDPVYKSMELYPVGPVTLVDTPGLDDVGELGRLRVEKARRVFYRADCGILVTDSEPTPYEDDVVNLFKEMEIPFVVVVNKIDVLGEKAEELKGLYESRYEAKVLLVSALQKKGFDDIGKTISEILPGDEEIPYLGDLIDGGDLVILVVPIDLGAPKGRLIMPQVHAIREALDREAIALVVKERELRYVMENIGMKPKLVITDSQVVMKVASDVPEDVELTTFSIVESRYRGDLAYFVESVRKIEELEDGDTVVIMEGCTHRPLTEDIGRVKIPRWLVNHTGAQLNFKVIAGKDFPDLEEIEGAKLIIHCGGCVLNRAAMMRRVRMAKRLGIPMTNYGVTISYLHGVLDRAIRPFREEVKV,not soluble
3,MGSSHHHHHHGGTGENLYFQGGSGSFRYTNHLVATLKHRLFLEAAHRQLVRQTFTGVCNGIEVTCTAYGSVVGIRMLDRAVWEPHYQVAADNKSEAAAATPTAPAAASPSRPSSSSSSSSTASGKTGIDLVKLSASIQAATWQAIQKVRAAKEETHSRSLRRNPQVLAEARLRDWYEQDANTLHPRPFDGLKNLEATEWMQAVRFGVPQPARYRRPNAAPKDLGEGGDGAHTDQKPRETITVLRDEDCDPANIPIGSVHPLFAPGLLQLEVDPNVATNGGSRVDEFFVLSEQRKEMRRDEEAFWERVELIRRSQLATIPKGGVKRGYADMADTVQDSIEEKVQLRFTQ,soluble
4,DILVFTPRKSDAGISVILYPGAFVDALSYAPLANKLASSGYKTYIAEMPLNLAVFGKNRAADIIDEAPDEKFVIGGHSLGGVMSSRFAHENESEIEGVFFLASYPDKKGSLKNASFPALSITGTKDDVLNKDAYDKNKKYLPKDTTFVSIEGGNHAQFGSYGAQHGDGKATISEAEQTDQVSNALIAWLNTSVKNQER,soluble
5,MSIAVGMIETRGFPAVVEAADSMVKAARVTLVGYEKIGSGRVTVIVRGDVSGVQASVSAGIEAANRVNGGEVLSTHIIARPHENLEYVLPIRYTEEVEQFRTYGVPRGLEHHHHHH,soluble
6,MHRGITVQTSDLDDGVTGVVGKVYIEASPKHVWAAITDYNNHKSFVPKLIDSGLISDNGREQVMFERGKTGIFLFRKTVYIKLSLQGEYPKRLDFHQIEGDFKVYEGDWLIERASDGKGSILTFRAKIKPDFFAPAMFVRKVQQNDLPMVLAAMKKRAESAEGSLEHHHHHH,not soluble
7,MAELACFVSFSLTEDKVVWYPINKKAVQTMLCAKVEKDQRSNYYDTILYGVAPPPEFRNRFKTNERYGLDYESDQYTELVNLLADTLNMVSMPTEKFQFDIVKTVVQVRHLENLLCRIKDVNDILNANVKLRVKAVMIACNLVNETETTPLTESNDIVYQDSYFTITKLDYSNHKLLPLMADEYKITINTKTDIPDRNQTAFAAYIRYNFNKFAAISHGKRHWRLVLHSQLMSHAERLDRKIKSDKKHGRQFSYDDGDMAFVHPGWKTCIGQLCGGTTFEVAKTSLYSIKPSKTVRTATNKIESDLISMVGN,soluble
8,MSRFAPATPLLLSLLLTSCSPAQGVRVERITGGGMLYTVATVDPARDQLTLHWLNPATGKPYSSFAQLGSRLGKQGKKLLFATNSGIYMPGPKPLGLHVEGGKTLVGLNNAGKGGGNFALLPNGVFWLRGKKAGVTETQAYRKLGLAPDYATQSGPLLVANGKLHPDFNKSGTSFKVRSGVGVCGGGKVRFAISAGPVNFYSFATFFRDTLGCPDALYLDGSISAYATPDTDTQFTEFAGIWAVTARLEHHHHHH,soluble
9,DGMTKLTFGGHPFLLGFEQLERLVERTAKTASEGYPPFNIEAVAENAYRITLAVAGFREDDIAITVEDRQLVVRGRQAEDPAERVFLHRGIASRAFQRSFVLADGVEVAGATMEHGLLHIDLHRQVPQAVVQTIPIGRNR,not soluble
10,MGSDKIHHHHHHMTTSATKEALFSPDCLEFLAKLASNNERDWFKAHQAEYEAKVRTPALNFIGAMAPHIQQLSPRLTAVPKKVGGSLMRPQRDARFSSDKTPYKVNVGIQFRHFQGKDVHAPGLYLHIANDGCFLGAGIWHPDSKALSQIRSCIDDNPNAYKQALKQLSAAGFAMEGDSLQRPPKGYDKHHPMLDELKRKDFIAIKPLDTQQLFTKDFDTWCAEQFNQVNKLMGYLCFALDLDY,not soluble
11,MGSDKIHHHHHHMEGKVKKAFPGGNTSQGSYSFFDYIIPENVKRVFCLKGGPGVGKSSLMKKIYKEFLHRGYDIDLYHCPSDPSSLDGLVIKKLGVVLMDATAPHTMDPKLPGALDEIINLGDYWNTEELEKNKQEISVYDKDISNSFKRAFKFLKSAEPIFRDIEEKYSDCMDYGKVNLVTEEFIKRLFDGVKSTGNLKREKHLFGSAITPVGCLDYTENILKDVKKVYYLDGEIGTGKTTLLNKVYKKAIEKGLNVEVYHYPLIPEKIETVLLTDLDIGITISTTFKEEDTIDLNQFLNREKLLKYEEDIKFDEKVLDDLICWAVLNLKRAKSKHDIIESYYSPNMRFDEVGKLRDKLIKRILKYEENL,not soluble
12,MAHHHHHHMRPLLVFGLRGTLLERIHASRVPSGMPGGAITVGMSRVWLRPSAMETLLALQQHCTLAVWSSTTARNTTPLMEAVFSQHAQKVNFAFVWSREHTTADEFRRVSATSRDDQHATVKDLREVYRRFPEIATPQNTVLIDDTPSKGKLNASNFLWLETCEELKIENPNVMPALRRFVEEHLLAEREDVRRLLPARVPWGQQ,not soluble
13,SLSETLYTGISQLATPRPGPQRGAAMGDLHIIEDAALLVRGGVIQWVGPRAAAPTATHVHDLGGRAVVPGLVDPHTHAVWAGDRLSDWEAKLQGATYEEILARGGGIRSTMRATAAADVAELVALARPRLASLRASGATTTEVKSGYGLDFDAELRMLRAVRELQAEFELRPTLLIHVPPQEGRAEYVVGVCAELIPQVAREGLAEALDVFCEKEAFSVEETRTMFAAAQAHGLRVKLHADQFHAIGGTELACEVGALSVDHLEASGAAQIAALAASETVATILPGVTLHLGLPAAPGRQLIDSGAIVAIGTDLNPGSSPLFSTQLALALAVRLCLLTPAEALSACTVNAAYALGLSDRGSLSAGQRADFLVLNGQDWREVAYTLGGNAVAEVYLAGAQL,soluble
14,VALESATVGSMHERTVRARTATGIVEGFTRDGVHRWRSIPYARAPVGSLRFRAPQPAQPWPGVRHCHTFANCAPQQRRYTVMGIGRYQTRSEDCLTLNVVTPEEPATQPLPVMVFIHGGGYILGSSATPIYDGAALARRGCVYVSVNYRLGALGCLDLSSLSTPQITLDSNVYLRDLVLALRWVHDNIAEFGGDPGNVTIFGESAGAHITATLLAVPAAKGLFARAISESPAAGMVRSREVAAEFAARFANLIGARTQDAANALMQASPAQLVEAQHHLIRQGMRKRLGAFPIGPVFGDDYLPMDPVEAMRSGRVHAVPLIVGTNAEEGRLFTRFLGMLPTNEPMVEELLSGMKPADRERITAAYPNYPAPSACIQLGGDFAFSSAAWQIAEAHGANAPTYLYRYDYAPRTLRWSGFGATHATELFAVFDIYRTRFGALLTAAADRRAALRVSNEVQRRWRCFSQIGVPGDDWPAYTQDDRAVLVFDRRCRIEFDPHQHRRIAWDGFSLAN,not soluble
15,NFLLTQPHSVSESPGKTVTISCTRSSGSIANNYVHWYQQRPGSSPTTVIFEDDHRPSGVPDRFSGSVDTSSNSASLTISGLKTEDEADYYCQSYDHNNQVFGGGTKLTVLG,soluble
